Measured values taken from PMC7857395 (Science (New York, N.y.), 2020).

Molecular target: SARS-CoV RBD (SARS-CoV (P59594; strain ), UniProt P59594)
Test: ELISA
Conditions: both partners purified

B1: S2E12 human monoclonal antibody (IgG) (antibody, V domains shown)
VH: not shown
VL: DIVLTQTPGTLSLSPGERATLSCRASQSVSSSYLAWYQQKPGQAPRLLIYGASSRATGIPDRFSGSGSGTDFTLTISRLEPEDFAVYYCQQYVGLTGWTFGQGTKVEIK
notes: also called S2E12 IgG; S2E12 mAb; copies: 2 + 2
B1: no binding.

B2: S2M11 human monoclonal antibody (IgG) (antibody, V domains shown)
VH: EVQLVQSGAEVKKPGASVKVSCKASGYTFTGYYMHWVRQAPGQGLEWMGWINPISSGTSYAQTFQGRVTMTSDTSITTAYMELSRLRSDDTAVYYCARAAPFYDFWSGYSYFDYWGQGTLVTVSS
VL: not shown
notes: also called S2M11 IgG; S2M11 mAb; copies: 2 + 2
B2: no binding.
